Experimental data: US20250355001A1, “METHOD FOR DETECTING A TAU PROTEIN FRAGMENT IN A SAMPLE” (GTINVENT LIMITED, priority 2022, published 2025)

Key:
[1] = molecular target: dGA (SEQ ID NO: 5) (Homo sapiens, UniProt P10636); experiment: Biacore X100 SPR kinetics of scAbs for dGA; format: binding; conditions: Table 24, scAb, dGA analyte; for Kd: dissociation rate
Procedure: Surface plasmon resonance (SPR) is widely regarded as the gold standard for real time measurement of protein-protein interactions such as antibody binding. All SPR experiments were carried out using a Biacore X100 machine and HBS EP+ running buffer (GE Healthcare). A ‘capture’ method was followed for affinity measurements, where an anti-human constant kappa chain (HuCk) antibody was conjugated to the surface of a CM5 sensor chip using an amine coupling kit and scAb molecules were immobilised via their HuCk domain. Amine coupling is a very common approach for immobilising the ligand to the chip surface. The chip surface has a dextran matrix derivatised with carboxyl groups, which after activation with N-hydroxysuccinimide (NHS) and 1-ethyl-3-(3-dimethylaminopropyl) carbodiimide (EDC), form reactive succinimide esters which allows the covalent capturing of the ligand via any available primary amine groups (e.g. Lysine) on the ligand (in this case anti-HuCk antibody). The capture antibody was diluted 1/100 in 10 mM Sodium acetate buffer pH 5.0 and passed over the activated chip surface for a period of at least 420 s. Final ligand immobilisation levels over 12,000 RU were deemed to be satisfactory.
Following immobilisation, the level of each scAb to be captured was identified using the standard SPR equation with a theoretical RMax of 100 RU. Analyte MW refers to the molecular weight of hT40 or dGA/dGAE molecules, while ligand MW refers to the molecular weight of the scAbs tested. RL is the desired capture level and S refers to the stoichiometric ratio:
The scAb to be tested was added only to flow cell 2 so that flow cell 1 could act as a control to subtract any interaction with the analyte and the chip surface. Both single and multi-cycle runs were utilised using wizards developed in the Biacore X100 control software which are both accepted methods of kinetic analysis (Karlsson, R., et al. Analyzing a kinetic titration series using affinity biosensors (2006) Analytical Biochemistry 349:136-47). The multi-cycle protocol was as follows-Three start-up cycles composed of an initial capture, to the desired level, of the scAb to be tested was performed followed by a 30 s injection of glycine buffer pH 2.0 after each cycle to regenerate the chip surface. The regeneration step removed any captured scAb whilst leaving the capture antibody intact and able to repeat the capture for the next cycle. Following three start-up cycles increasing concentrations (0.15625 nM-100 nM) of the target to be tested were added to the chip surface after the desired scAb capture. The target was added for a 120 s association period and 420 s dissociation period followed by another regeneration, 30 s injection of glycine buffer pH 2.0 in between each cycle.
The single cycle kinetics protocol was similar and utilised the same level of scAb capture. Three start-up cycles were used followed by 5 increasing concentrations of the analyte (6.25 nM-100 nM) for an association period of 120 s followed by a dissociation period of 420 s for each concentration. In single cycle kinetics the regeneration step was performed only after the final analyte concentration was added. Binding responses were analysed in Biacore X100 evaluation software and data fitted to a 1:1 binding model to obtain kinetic and affinity characterisation.

[2] = tested on: hT40, dGA, dGAE and truncated tau fragments; experiment: Binding ELISA / epitope mapping of anti-tau scAbs with truncated tau proteins and 13mer peptides; design: species or system human; conditions: for Tau proteins/fragments with positive scAb reactivity: binding ELISA; for binding region on hT40: amino acid residues of hT40; for Binding region hT40: second Table 26, own antibodies
Summary of the method: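 Plates coated with 1 μg/ml tau protein, or 5 μg/ml streptavidin then 1 μg/ml biotinylated 13mer peptide; blocked with 2% MPBS. scAbs added at a starting concentration and double-diluted. Bound scAb detected with HRP anti-human C kappa and read as absorbance.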

[3] = molecular target: T1, htau40 (Homo sapiens, UniProt P10636); experiment: Biacore X100 SPR kinetics of anti-tau mAbs on immobilised htau40; format: binding
T1 construct: Full length tau (hT40)
T1 sequence (P10636 1-441 isoform P10636-8): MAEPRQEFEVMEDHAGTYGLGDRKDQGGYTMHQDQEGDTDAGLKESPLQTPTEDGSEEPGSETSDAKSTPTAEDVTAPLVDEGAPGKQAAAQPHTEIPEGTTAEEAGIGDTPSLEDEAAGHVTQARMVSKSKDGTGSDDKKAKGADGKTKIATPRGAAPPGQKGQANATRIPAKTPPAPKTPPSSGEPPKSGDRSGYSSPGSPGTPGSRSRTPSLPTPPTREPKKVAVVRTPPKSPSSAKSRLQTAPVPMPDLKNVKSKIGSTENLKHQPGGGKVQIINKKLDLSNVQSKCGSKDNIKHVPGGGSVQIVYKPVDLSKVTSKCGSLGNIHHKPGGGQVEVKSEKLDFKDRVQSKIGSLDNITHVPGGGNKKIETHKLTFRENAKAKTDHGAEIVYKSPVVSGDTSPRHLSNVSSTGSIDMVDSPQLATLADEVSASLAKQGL
Summary of the method: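 Htau40 amine-coupled to CM5 chip (~250 RU, pH 4.0 immobilisation), reference flow cell subtracted; mAb injected at 0.78–25 nM in HBS-EP+, 120 s association, 600 s dissociation, glycine pH 1.5 regeneration. Kinetic and affinity constants from 1:1 binding model fit.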

[4] = Table 15, residue numbers of hT40
[5] = Table 26 summary, top scAbs, residues of hT40
[6] = residue numbers of SEQ ID NO: 1 (hT40), CDR Tables 1-11
[7] = Table 27, mAb format, immobilised htau40
[8] = second Table 25, newly converted mAbs, hT40
[9] = Table 16, NS, S and M clones, incl. 13mer peptides

Chain of dGA (SEQ ID NO: 5) (P10636 614-707): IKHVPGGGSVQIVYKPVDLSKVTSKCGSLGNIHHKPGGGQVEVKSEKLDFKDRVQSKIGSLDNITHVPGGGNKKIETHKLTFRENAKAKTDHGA

Molecule	ka [1] [M⁻¹ s⁻¹]	Kd [1] [s⁻¹]	Epitope [2, 5]	Epitope [2, 6]	ka [3, 7] [M⁻¹ s⁻¹]	kd [3, 7] [s⁻¹]	Tau proteins/fragments with positive scAb reactivity ([2]; Table 16, NS, S and M clones)	Shortest region bound on hT40 [2, 9]	binding region on hT40 [2]	Binding region hT40 [2]	further results
CE2: anti-tau core clone, Table 10; SEQ ID NO: 366 (protein, CE2/E1B8 amino acid sequence) scFv: QVQLQESGPSLVKPSQTLSLTCTVSGFSLTNYPVGWVRQAPGKALEWIGNIENDGSANYASALKSRLSITRDTSKNQVSLSLSSATTEDTAVYYCGREFGGSDGYTYFVDIDYWGPGLLVTVSSEGKSSGASGESKVDDQAVLTQPSSVSKSLGQSVSITCSGSSSNVGYGNYVSWFQQVPGSAPKILIYGATSRASGVPDRFSGSRSGNTATLTITSLQAEDEADYYCASYDGSSSGVFGSGTRLTVLG	137000	0.00242	319-331	319-331	457900	0.005218					cross-reactivity using hT40, dGA and dGAE antigens ([2]; ELISA, 'E' group scAbs): cross-reacts with dGA; Tau proteins/fragments with positive scAb reactivity [2, 4]: 297-390 (dGA), 297-391 (dGAE), 313-336; Shortest region bound on hT40 [2, 4]: 313-336; Tau proteins/fragments with positive scAb reactivity ([2]; Table 17, 'C' group scAbs): hT40, 266-359 (R1-3); Shortest region bound on hT40 ([2]; Table 17, 'C' group scAbs, incl. 13mer peptides): 319-331; Epitope ([2]; Table 26 summary, top scAbs, residues of hT40, listed as E1B8): 316-336; binding region on hT40 ([2]; listed as E1B8 scAb): 313-336; hT40 binding region ([2]; second Table 25, mAb format): 319-331; ka [3, 8]: 323800 M⁻¹ s⁻¹; kd [3, 8]: 0.001367 s⁻¹
S1G2: sheep-derived anti-tau core clone; scFv SEQ ID NO: 81, VH 455, VL 456 (protein, S1G2 amino acid sequence) scFv: QVQLQESGPSLVKPSQTLSLTCTVSGFSLTSNSVGWVRQAPGKAPEWVAGIDTDGEEGYNPALNSRLSITRDTSKSQVSLSLSSVTSEDTAVYYCGRSYRADGLAYGYVQAIDYWGPGLLVTVSSEGKSSGASGESKVDDQAVVTQPSSVSGSLGQRVSITCSGSFIGISSVGWFQQLPGSGLRTIIVASDGRPSGVPDRFSMSKSGNTATLTISSLQAEDEADYFCGSSDRTPYTGVFGSGTRLTVLG	783000	0.0003499	367-379		339800	4.748e-05	hT40, 297-390 (dGA), 297-391 (dGAE), 369-390, 369-391	367-379	367-379	(Binding region hT40 367-379)	Detection scAb (Epitope) ([2]; Table 28 (LoD table), residues of hT40): S1G2 (367-379)
S1D12: sheep-derived anti-tau core clone; scFv SEQ ID NO: 32, VH 443, VL 444 (protein, S1D12 amino acid sequence) scFv: QVQLQESGPSLVKPSQTLSLTCTVSGFSLNNNAVGWVRQAPGKVPESLVGCSSDGTCYYNSALKSRLDITRDTSKNQISLSLSSVTTDDAAVYYCTRGHYSIYGYDYLGTIDYWGPGLLVTVSSEGKSSGASGESKVDDQAVLTQPSSVSGSLGQRVSITCSGSSSNVGGGNSVGWYQHLPGSGLKTIIYDTNSRPSGVPDRFSGSRSGNTATLTINSLQAEDEGDYYCVTGDSTTHDDLVGSGTRLTVLG	1.21e+06	0.000418	337-349	337-355	405800	4.093e-05	hT40, 297-390 (dGA), 297-391 (dGAE), 186-350, 266-359, 337-368	337-355	337-355	(Binding region hT40 337-355)	Kd ([3]; as quoted in Example 32, read-out: affinity): 0.12 nM
